Test results: patent US20250295799A1 (Zymeworks, published 2025)

Columns and labels:
human glypican-3 (GPC3) [1] = target: T1, human glypican-3 (GPC3) (human, UniProt P51654 25-554); assay: flow cytometry on CHO-S cells transfected with human GPC3;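 also: antibody binding to transiently transfected CHO-S cells after 24 hours at 4 °C, read as geometric mean fluorescence of anti-human AF647 in live cells, fitted against antibody concentration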
T1 construct: Endogenous on JHH-7, JHH-5, HepG2 and NCI-H446 tumour cells, or transiently expressed on CHO-S cells from a pTT5 plasmid; also called hGPC3; huGPC3
Experimental: (§1) Briefly, CHO—S cells were transiently transfected for −24 hours with a pTT5-based expression plasmid encoding human GPC3 or cynomolgus monkey GPC3, 0.5 μg DNA per 1 million cells, using the Neon™ Transfection System (Thermo Fisher Scientific Corp., Waltham, MA), to transiently express human or cynomolgus monkey GPC3. Cells transfected with GFP were used as negative transfection controls. Following transfection, cells were seeded at 50,000 cells/well in V-bottom 96-well plates and treated with antibody for 24 hours at 4° C. to prevent internalization. […] Following incubation and washing, fluorescence was detected by flow cytometry on a BD LSRFortessa™ Cell Analyzer (BD Biosciences, Franklin Lake, NJ) with 1,000 minimum events collected per well. AF647/APC-A GeoMean (fluorescence signal geometric mean, proportional to anti-Human AF647 binding) in live cell population was plotted against antibody concentration using GraphPad Prism Version 9 (GraphPad Software, San Diego, CA). The Bmax and Kd values were derived from the “Specific binding with Hill slope” nonlinear regression curve fit in GraphPad Prism Version 9.

human glypican-3 (GPC3) [2] = target: T1, human glypican-3 (GPC3); assay: flow cytometry on JHH-5 cells (GPC3-mid);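 also: antibody binding to cells at 4 °C for 24 h, detected with anti-human AF647 as geometric mean fluorescence of live cells versus antibody concentration, fitted by specific binding with Hill slope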
Experimental: (§2) Briefly, cells were seeded at 50,000 cells/well in V-bottom 96-well plates and treated with antibody for 24 hours at 4° C. to prevent internalization. […] Following incubation and washing, fluorescence was detected by flow cytometry on a BD LSRFortessa™ Cell Analyzer (BD Biosciences, Franklin Lake, NJ) with 1,000 minimum events collected per well. AF647/APC-A GeoMean (fluorescence signal geometric mean, proportional to anti-Human AF647 binding) in live cell population was plotted against antibody concentration using GraphPad Prism Version 9 (GraphPad Software, San Diego, CA). The Bmax, Curve Hill Slope (h) and Kd values were derived from the “Specific binding with Hill slope” nonlinear regression curve fit in GraphPad Prism Version 9.

human glypican-3 (GPC3) [3] = target: T1, human glypican-3 (GPC3); assay: flow cytometry on JHH-7 cells (GPC3-high);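 also: antibody binding at 4 °C for 24 h, detected with anti-human AF647 secondary, geometric mean fluorescence of live cells versus antibody concentration, fitted as specific binding with Hill slope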
Experimental: as §2

[4] = target: T2, cynomolgus monkey glypican-3 (GPC3) (cynomolgus monkey, UniProt A5A6P7 25-554 (Pan troglodytes entry)); assay: flow cytometry on CHO-S cells transfected with cynomolgus GPC3;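 also: antibodies incubated 24 h at 4 °C with transiently transfected cells, binding read as AF647 geometric mean fluorescence of live cells, GFP-transfected cells as negative control, Hill-slope specific-binding fit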
T2 construct: Transiently expressed on CHO-S cells; also called cynoGPC3; CynoGPC3-CHO
Experimental: as §1

human glypican-3 (GPC3) [5] = target: T1, human glypican-3 (GPC3); assay: cell-based or functional assay
For JHH-5 Internalization (MFI) in this document: test concentration or dose not given here.
For JHH-7 Internalization (MFI) in this document: test concentration or dose not given here.

Binder	Bmax (MFI) (human glypican-3 (GPC3) [1])	Kd (human glypican-3 (GPC3) [1])	Bmax (MFI) (human glypican-3 (GPC3) [2])	Kd (human glypican-3 (GPC3) [2])	Bmax (MFI) (human glypican-3 (GPC3) [3])	Kd (human glypican-3 (GPC3) [3])	Bmax (MFI) [4]	Kd [4]	JHH-5 Internalization (MFI) (human glypican-3 (GPC3) [5])	JHH-7 Internalization (MFI) (human glypican-3 (GPC3) [5])
codrituzumab (v37575) (antibody, human IgG1, kappa, V domains shown, also called GC33; RG-7686) VH: QVQLVQSGAEVKKPGASVKVSCKASGYTFTDYEMHWVRQAPGQGLEWMGALDPKTGDTAYSQKFKGRVTLTADKSTSTAYMELSSLTSEDTAVYYCTRFYSYTYWGQGTLVTVSS VL: DVVMTQSPLSLPVTPGEPASISCRSSQSLVHSNRNTYLHWYLQKPGQSPQLLIYKVSNRFSGVPDRFSGSGSGTDFTLKISRVEAEDVGVYYCSQNTHVPPTFGQGTKLEIKR	2660 MFI	0.08 nM	5590 MFI	0.19 nM	14800 MFI	0.31 nM	3280 MFI	0.09 nM	8770 MFI	6560 MFI
H18L6_LC_G34H mAb, v40205 (antibody, human IgG1, kappa, V domains shown, M3-H18L6 chains with the stated light chain point mutation, IgG1/kappa) VH: QVQLVQSGAEVKKPGSSVKVSCKASGYTFTDYEMHWVKQAPGHGLEWIGAIDPETGDTAYNQKFKGKATLTADTSTSTAYMELSSLRSEDTAVYYCTRYFSFAYWGQGTLVTVSS VL: EIVLTQSPATLSLSPGERATISCRSSQSLRHSNHNTYLQWYQQKPGQAPRLLIYKVSNRFSGVPARFSGSGSGTDFTLTISSLEPEDFAVYFCYQSKHVPYTFGGGTKVEIKR	2460 MFI	0.1 nM	4580 MFI	0.16 nM	12500 MFI	0.43 nM	2990 MFI	0.14 nM	9170 MFI	7320 MFI
H18L6_LC_N33S mAb, v40221 (antibody, human IgG1, kappa, V domains shown, M3-H18L6 chains with the stated light chain point mutation, IgG1/kappa) VH: QVQLVQSGAEVKKPGSSVKVSCKASGYTFTDYEMHWVKQAPGHGLEWIGAIDPETGDTAYNQKFKGKATLTADTSTSTAYMELSSLRSEDTAVYYCTRYFSFAYWGQGTLVTVSS VL: EIVLTQSPATLSLSPGERATISCRSSQSLRHSSGNTYLQWYQQKPGQAPRLLIYKVSNRFSGVPARFSGSGSGTDFTLTISSLEPEDFAVYFCYQSKHVPYTFGGGTKVEIKR	–	–	–	–	7220 MFI	0.79 nM	–	–	–	–
H18L6_LC_N33R mAb, v40216 (antibody, human IgG1, kappa, V domains shown, M3-H18L6 chains with the stated light chain point mutation, IgG1/kappa) VH: QVQLVQSGAEVKKPGSSVKVSCKASGYTFTDYEMHWVKQAPGHGLEWIGAIDPETGDTAYNQKFKGKATLTADTSTSTAYMELSSLRSEDTAVYYCTRYFSFAYWGQGTLVTVSS VL: EIVLTQSPATLSLSPGERATISCRSSQSLRHSRGNTYLQWYQQKPGQAPRLLIYKVSNRFSGVPARFSGSGSGTDFTLTISSLEPEDFAVYFCYQSKHVPYTFGGGTKVEIKR	–	–	–	–	9650 MFI	0.67 nM	–	–	–	–
H18L6_LC_N33Q mAb, v40220 (antibody, human IgG1, kappa, V domains shown, M3-H18L6 chains with the stated light chain point mutation, IgG1/kappa) VH: QVQLVQSGAEVKKPGSSVKVSCKASGYTFTDYEMHWVKQAPGHGLEWIGAIDPETGDTAYNQKFKGKATLTADTSTSTAYMELSSLRSEDTAVYYCTRYFSFAYWGQGTLVTVSS VL: EIVLTQSPATLSLSPGERATISCRSSQSLRHSQGNTYLQWYQQKPGQAPRLLIYKVSNRFSGVPARFSGSGSGTDFTLTISSLEPEDFAVYFCYQSKHVPYTFGGGTKVEIKR	–	–	–	–	7220 MFI	0.67 nM	–	–	–	–
H18L6_LC_N33A mAb, v40219 (antibody, human IgG1, kappa, V domains shown, M3-H18L6 chains with the stated light chain point mutation, IgG1/kappa) VH: QVQLVQSGAEVKKPGSSVKVSCKASGYTFTDYEMHWVKQAPGHGLEWIGAIDPETGDTAYNQKFKGKATLTADTSTSTAYMELSSLRSEDTAVYYCTRYFSFAYWGQGTLVTVSS VL: EIVLTQSPATLSLSPGERATISCRSSQSLRHSAGNTYLQWYQQKPGQAPRLLIYKVSNRFSGVPARFSGSGSGTDFTLTISSLEPEDFAVYFCYQSKHVPYTFGGGTKVEIKR	–	–	–	–	7870 MFI	0.62 nM	–	–	–	–
H18L6_LC_N33T mAb, v40214 (antibody, human IgG1, kappa, V domains shown, M3-H18L6 chains with the stated light chain point mutation, IgG1/kappa) VH: QVQLVQSGAEVKKPGSSVKVSCKASGYTFTDYEMHWVKQAPGHGLEWIGAIDPETGDTAYNQKFKGKATLTADTSTSTAYMELSSLRSEDTAVYYCTRYFSFAYWGQGTLVTVSS VL: EIVLTQSPATLSLSPGERATISCRSSQSLRHSTGNTYLQWYQQKPGQAPRLLIYKVSNRFSGVPARFSGSGSGTDFTLTISSLEPEDFAVYFCYQSKHVPYTFGGGTKVEIKR	–	–	–	–	9990 MFI	0.75 nM	–	–	–	–
H18L6_LC_N33E mAb, v40213 (antibody, human IgG1, kappa, V domains shown, M3-H18L6 chains with the stated light chain point mutation, IgG1/kappa) VH: QVQLVQSGAEVKKPGSSVKVSCKASGYTFTDYEMHWVKQAPGHGLEWIGAIDPETGDTAYNQKFKGKATLTADTSTSTAYMELSSLRSEDTAVYYCTRYFSFAYWGQGTLVTVSS VL: EIVLTQSPATLSLSPGERATISCRSSQSLRHSEGNTYLQWYQQKPGQAPRLLIYKVSNRFSGVPARFSGSGSGTDFTLTISSLEPEDFAVYFCYQSKHVPYTFGGGTKVEIKR	1860 MFI	0.25 nM	1940 MFI	3.39 nM	–	–	2320 MFI	0.22 nM	1200 MFI	1220 MFI
H18L6_LC_N33V mAb, v40215 (antibody, human IgG1, kappa, V domains shown, M3-H18L6 chains with the stated light chain point mutation, IgG1/kappa) VH: QVQLVQSGAEVKKPGSSVKVSCKASGYTFTDYEMHWVKQAPGHGLEWIGAIDPETGDTAYNQKFKGKATLTADTSTSTAYMELSSLRSEDTAVYYCTRYFSFAYWGQGTLVTVSS VL: EIVLTQSPATLSLSPGERATISCRSSQSLRHSVGNTYLQWYQQKPGQAPRLLIYKVSNRFSGVPARFSGSGSGTDFTLTISSLEPEDFAVYFCYQSKHVPYTFGGGTKVEIKR	–	–	–	–	9540 MFI	1.01 nM	–	–	–	–
H18L6_LC_N33D mAb, v40222 (antibody, human IgG1, kappa, V domains shown, M3-H18L6 chains with the stated light chain point mutation, IgG1/kappa) VH: QVQLVQSGAEVKKPGSSVKVSCKASGYTFTDYEMHWVKQAPGHGLEWIGAIDPETGDTAYNQKFKGKATLTADTSTSTAYMELSSLRSEDTAVYYCTRYFSFAYWGQGTLVTVSS VL: EIVLTQSPATLSLSPGERATISCRSSQSLRHSDGNTYLQWYQQKPGQAPRLLIYKVSNRFSGVPARFSGSGSGTDFTLTISSLEPEDFAVYFCYQSKHVPYTFGGGTKVEIKR	–	–	–	–	–	> 47 nM	–	–	–	–
H18L6_LC_N33K mAb, v40217 (antibody, human IgG1, kappa, V domains shown, M3-H18L6 chains with the stated light chain point mutation, IgG1/kappa) VH: QVQLVQSGAEVKKPGSSVKVSCKASGYTFTDYEMHWVKQAPGHGLEWIGAIDPETGDTAYNQKFKGKATLTADTSTSTAYMELSSLRSEDTAVYYCTRYFSFAYWGQGTLVTVSS VL: EIVLTQSPATLSLSPGERATISCRSSQSLRHSKGNTYLQWYQQKPGQAPRLLIYKVSNRFSGVPARFSGSGSGTDFTLTISSLEPEDFAVYFCYQSKHVPYTFGGGTKVEIKR	–	–	–	–	9230 MFI	0.56 nM	–	–	–	–
H18L6_LC_N33H mAb, v40218 (antibody, human IgG1, kappa, V domains shown, M3-H18L6 chains with the stated light chain point mutation, IgG1/kappa) VH: QVQLVQSGAEVKKPGSSVKVSCKASGYTFTDYEMHWVKQAPGHGLEWIGAIDPETGDTAYNQKFKGKATLTADTSTSTAYMELSSLRSEDTAVYYCTRYFSFAYWGQGTLVTVSS VL: EIVLTQSPATLSLSPGERATISCRSSQSLRHSHGNTYLQWYQQKPGQAPRLLIYKVSNRFSGVPARFSGSGSGTDFTLTISSLEPEDFAVYFCYQSKHVPYTFGGGTKVEIKR	–	–	–	–	8070 MFI	0.77 nM	–	–	–	–
